From US20250313605A1 come the findings set out here.

The experiment has as its target human GIP receptor (human) (UniProt P48546). Briefly: cell-based or functional assay.

Chain of human GIP receptor (human) (P48546 22-466): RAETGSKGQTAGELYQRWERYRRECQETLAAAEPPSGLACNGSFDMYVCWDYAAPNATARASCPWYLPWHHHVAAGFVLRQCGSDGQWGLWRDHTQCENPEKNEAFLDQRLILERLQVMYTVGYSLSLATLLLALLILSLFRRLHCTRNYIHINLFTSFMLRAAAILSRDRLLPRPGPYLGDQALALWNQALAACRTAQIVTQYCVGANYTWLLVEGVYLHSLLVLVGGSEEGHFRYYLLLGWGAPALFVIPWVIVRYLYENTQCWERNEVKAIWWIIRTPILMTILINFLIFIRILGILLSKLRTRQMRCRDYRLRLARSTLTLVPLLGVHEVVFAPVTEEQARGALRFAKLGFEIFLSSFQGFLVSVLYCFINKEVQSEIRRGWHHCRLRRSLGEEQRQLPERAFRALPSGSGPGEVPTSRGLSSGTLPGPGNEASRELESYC

Take “human GIP (1-42)NH2 (from UniProt P09681 52-93) (ligand)”: the cAMP EC50 (0.1% casein) was 0.154 nM; the cAMP EC50 (FBS and BSA present) is 0.133 nM.
